Laboratory results as given in article PMC8647176, “Helical filament structure of the DREP3 CIDE domain reveals a unified mechanism of CIDE-domain assembly” (Acta Crystallographica. Section D, Structural Biology, 2021).

Molecular target: the molecule itself
Experiment: SEC; Superdex 200 Increase 10/300 GL, 20 mM Tris-HCl pH 7.9, 500 mM NaCl; also series at 1, 5 and 15 mg ml^-1 protein and at four NaCl concentrations

B1: DREP3 CIDE domain (DNA fragmentation factor-related protein 3, residues Phe112-Asp195) (domain or fragment, Drosophila melanogaster, UniProt Q0E9B7 112-195, looked up)
chain: FAQLDNSKPFKIKDITRNIRKAVVATTLSELRTKVSLKFERAQPAIHLDCDGTEVDDEEYFSTLEPNAELIAVFPGEQWRDPSD
notes: DREP3 (DNA fragmentation factor-related protein 3), Drosophila melanogaster, UniProt Q0E9B7, CIDE domain, residues Phe112-Asp195; Cloned with NdeI and XhoI into pET-21a; The final model of PDB 7v6e holds residues 117-193; also called wild-type DREP3 CIDE domain; WT DREP3 CIDE domain; source: E. coli BL21 (DE3), purified (Ni-NTA, SEC)
B1: binds.
